Assay results reported in the supplement of paper PMC5998384.

Experiments:
[1] = system: HeLa Kyoto; assay: melting temperature (median over replicates), in situ; higher = more thermally stable
[2] = system: HeLa Kyoto; assay: thermal stability score vs G1/S (z-score of summed log2 fold changes over temperatures); higher = more thermally stable than in G1/S
[3] = system: HeLa Kyoto; assay: solubility change mitosis vs G1/S (difference of NP-40 vs SDS log2 ratios) (log2 ratio difference); higher = more soluble in mitosis
[4] = system: HeLa Kyoto; assay: solubility in G1/S (NP-40 vs SDS abundance) (log2 ratio); higher = more soluble; settings: cell cycle stage: G1/S
[5] = cell cycle stage: early G1 (4.5 h after nocodazole release)
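Throughout, for melting temperature (median over replicates), in situ: HeLa Kyoto cells synchronized by double thymidine or nocodazole block, proteins quantified by TMT10plex mass spectrometry, three independent biological replicates.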
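Throughout, for solubility change mitosis vs G1/S (difference of NP-40 vs SDS log2 ratios): synchronized HeLa Kyoto cells (double thymidine block for G1/S, nocodazole release for mitosis), protein amounts in NP-40 versus SDS lysates quantified by mass spectrometry, three biological replicates.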
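Throughout, for solubility in G1/S (NP-40 vs SDS abundance): HeLa Kyoto cells arrested at G1/S by double thymidine block, proteins quantified by TMT10plex mass spectrometry in mild NP-40 versus SDS extracts, three biological replicates.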
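Throughout, for thermal stability score vs G1/S (z-score of summed log2 fold changes over temperatures): synchronized HeLa Kyoto cells, proteins quantified by TMT10plex mass spectrometry, three biological replicates, mitosis taken 0.5 h after nocodazole release, G1/S directly after double thymidine block.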

LSM3, sequence (chain, as listed by the source): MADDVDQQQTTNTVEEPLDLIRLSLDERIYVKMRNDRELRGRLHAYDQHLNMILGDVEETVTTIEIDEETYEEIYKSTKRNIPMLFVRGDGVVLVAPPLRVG

Row | Substance | melting temperature ([1]; cell cycle stage: G1/S) | melting temperature ([1]; cell cycle stage: mitosis) | thermal stability score [2, 5] | thermal stability score ([2]; cell cycle stage: mitosis) | solubility change mitosis (log2) [3] | solubility in G1/S (log2) [4]
1 | MFGAGDEDDTDFLSPSGGARLASLFGLDQAAAGHGNEFFQYTAPKQPKKGQGTAATGNQATPKTAPATMSTPTILVATAVHAYRYTNGQYVKQGKFGAAVLGNHTAREYRILLYISQQQPVTVARIHVNFELMVRPNNYSTFYDDQRQNWSIMFESEKAAVEFNKQVCIAKCNSTSSLDAVLSQDLIVADGPAVEVGDSLEVAYTGWLFQNHVLGQVFDSTANKDKLLRLKLGSGKVIKGWEDGMLGMKKGGKRLLIVPPACAVGSEGVIGWTQATDSILVFEVEVRRVKFARDSGSDGHSVSSRDSAAPSPIPGADNLSADPVVSPPTSIPFKSGEPALRTKSNSLSEQLAINTSPDAVKAKLISRMAKMGQPMLPILPPQLDSNDSEIEDVNTLQGGGQPVVTPSVQPSLHPAHPALPQMTSQAPQPSVTGLQAPSAALMQVSSLDSHSAVSGNAQSFQPYAGMQAYAYPQASAVTSQLQPVRPLYPAPLSQPPHFQGSGDMASFLMTEARQHNTEIRMAVSKVADKMDHLMTKVEELQKHSAGNSMLIPSMSVTMETSMIMSNIQRIIQENERLKQEILEKSNRIEEQNDKISELIERNQRYVEQSNLMMEKRNNSLQTATENTQARVLHAEQEKAKVTEELAAATAQVSHLQLKMTAHQKKETELQMQLTESLKETDLLRGQLTKVQAKLSELQETSEQAQSKFKSEKQNRKQLELKVTSLEEELTDLRVEKESLEKNLSERKKKSAQERSQAEEEIDEIRKSYQEELDKLRQLLKKTRVSTDQAAAEQLSLVQAELQTQWEAKCEHLLASAKDEHLQQYQEVCAQRDAYQQKLVQLQEKCLALQAQITALTKQNEQHIKELEKNKSQMSGVEAAASDPSEKVKKIMNQVFQSLRREFELEESYNGRTILGTIMNTIKMVTLQLLNQQEQEKEESSSEEEEEKAEERPRRPSQEQSASASSGQPQAPLNRERPESPMVPSEQVVEEAVPLPPQALTTSQDGHRRKGDSEAEALSEIKDGSLPPELSCIPSHRVLGPPTSIPPEPLGPVSMDSECEESLAASPMAAKPDNPSGKVCVREVAPDGPLQESSTRLSLTSDPEEGDPLALGPESPGEPQPPQLKKDDVTSSTGPHKELSSTEAGSTVAGAALRPSHHSQRSSLSGDEEDELFKGATLKALRPKAQPEEEDEDEVSMKGRPPPTPLFGDDDDDDDIDWLG [FKBP15] | 49.6 °C | 50 °C | -0.146 | 1.12 | -0.0387 | 0.0656
2 | MAAVATCGSVAASTGSAVATASKSNVTSFQRRGPRASVTNDSGPRLVSIAGTRPSVRNGQLLVSTGLPALDQLLGGGLAVGTVLLIEEDKYNIYSPLLFKYFLAEGIVNGHTLLVASAKEDPANILQELPAPLLDDKCKKEFDEDVYNHKTPESNIKMKIAWRYQLLPKMEIGPVSSSRFGHYYDASKRMPQELIEASNWHGFFLPEKISSTLKVEPCSLTPGYTKLLQFIQNIIYEEGFDGSNPQKKQRNILRIGIQNLGSPLWGDDICCAENGGNSHSLTKFLYVLRGLLRTSLSACIITMPTHLIQNKAIIARVTTLSDVVVGLESFIGSERETNPLYKDYHGLIHIRQIPRLNNLICDESDVKDLAFKLKRKLFTIERLHLPPDLSDTVSRSSKMDLAESAKRLGPGCGMMAGGKKHLDF [ELP4] | 53.8 °C | 55.4 °C | 0.169 | -0.665 | -0.017 | 0.226
3 | PKM | 57.8 °C | 57.4 °C | -2.6 | -2.54 | -0.106 | 0.116
4 | TACC2 | 54.3 °C | 53.8 °C | -1.3 | 1.83 | -0.0921 | 0.219
5 | MDGAAGPGDGPAREALQSLSQRLRVQEQEMELVKAALAEALRLLRLQVPPSSLQGSGTPAPPGDSLAAPPGLPPTCTPSLVSRGTQTETEVELKSSPGPPGLSNGPPAPQGASEEPSGTQSEGGGSSSSGAGSPGPPGILRPLQPPQRADTPRRNSSSSSSPSERPRQKLSRKAISSANLLVRSGSTESRGGKDPLSSPGGPGSRRSNYNLEGISVKMFLRGRPITMYIPSGIRSLEELPSGPPPETLSLDWVYGYRGRDSRSNLFVLRSGEVVYFIACVVVLYRPGGGPGGPGGGGQRHYRGHTDCVRCLAVHPDGVRVASGQTAGVDKDGKPLQPVVHIWDSETLLKLQEIGLGAFERGVGALAFSAADQGAFLCVVDDSNEHMLSVWDCSRGMKLAEIKSTNDSVLAVGFNPRDSSCIVTSGKSHVHFWNWSGGVGVPGNGTLTRKQGVFGKYKKPKFIPCFVFLPDGDILTGDSEGNILTWGRSPSDSKTPGRGGAKETYGIVAQAHAHEGSIFALCLRRDGTVLSGGGRDRRLVQWGPGLVALQEAEIPEHFGAVRAIAEGLGSELLVGTTKNALLRGDLAQGFSPVIQGHTDELWGLCTHPSQNRFLTCGHDRQLCLWDGESHALAWSIDLKETGLCADFHPSGAVVAVGLNTGRWLVLDTETREIVSDVIDGNEQLSVVRYSPDGLYLAIGSHDNVIYIYSVSSDGAKSSRFGRCMGHSSFITHLDWSKDGNFIMSNSGDYEILYWDVAGGCKQLKNRYESRDREWATYTCVLGFHVYGVWPDGSDGTDINSLCRSHNERVVAVADDFCKVHLFQYPCARAKAPSRMYGGHGSHVTSVRFTHDDSHLVSLGGKDASIFQWRVLGAGGAGPAPATPSRTPSLSPASSLDV [EML3] | 51.6 °C | 52 °C | -0.497 | 0.0727 | -0.215 | 0.0248
6 | MARVLKAAAANAVGLFSRLQAPIPTVRASSTSQPLDQVTGSVWNLGRLNHVAIAVPDLEKAAAFYKNILGAQVSEAVPLPEHGVSVVFVNLGNTKMELLHPLGRDSPIAGFLQKNKAGGMHHICIEVDNINAAVMDLKKKKIRSLSEEVKIGAHGKPVIFLHPKDCGGVLVELEQA [MCEE] | 57.8 °C | 56.1 °C | -0.379 | -2.18 | 0.128 | 0.471
7 | MRRVTLFLNGSPKNGKVVAVYGTLSDLLSVASSKLGIKATSVYNGKGGLIDDIALIRDDDVLFVCEGEPFIDPQTDSKPPEGLLGFHTDWLTLNVGGRYFTTTRSTLVNKEPDSMLAHMFKDKGVWGNKQDHRGAFLIDRSPEYFEPILNYLRHGQLIVNDGINLLGVLEEARFFGIDSLIEHLEVAIKNSQPPEDHSPISRKEFVRFLLATPTKSELRCQGLNFSGADLSRLDLRYINFKMANLSRCNLAHANLCCANLERADLSGSVLDCANLQGVKMLCSNAEGASLKLCNFEDPSGLKANLEGANLKGVDMEGSQMTGINLRVATLKNAKLKNCNLRGATLAGTDLENCDLSGCDLQEANLRGSNVKGAIFEEMLTPLHMSQSVR [KCTD9] | 52.3 °C | 51 °C | -0.393 | -1.4 | -0.2 | 0.0627
8 | MAENKGGGEAESGGGGSGSAPVTAGAAGPAAQEAEPPLTAVLVEEEEEEGGRAGAEGGAAGPDDGGVAAASSGSAQAASSPAASVGTGVAGGAVSTPAPAPASAPAPGPSAGPPPGPPASLLDTCAVCQQSLQSRREAEPKLLPCLHSFCLRCLPEPERQLSVPIPGGSNGDIQQVGVIRCPVCRQECRQIDLVDNYFVKDTSEAPSSSDEKSEQVCTSCEDNASAVGFCVECGEWLCKTCIEAHQRVKFTKDHLIRKKEDVSESVGASGQRPVFCPVHKQEQLKLFCETCDRLTCRDCQLLEHKEHRYQFLEEAFQNQKGAIENLLAKLLEKKNYVHFAATQVQNRIKEVNETNKRVEQEIKVAIFTLINEINKKGKSLLQQLENVTKERQMKLLQQQNDITGLSRQVKHVMNFTNWAIASGSSTALLYSKRLITFQLRHILKARCDPVPAANGAIRFHCDPTFWAKNVVNLGNLVIESKPAPGYTPNVVVGQVPPGTNHISKTPGQINLAQLRLQHMQQQVYAQKHQQLQQMRMQQPPAPVPTTTTTTQQHPRQAAPQMLQQQPPRLISVQTMQRGNMNCGAFQAHQMRLAQNAARIPGIPRHSGPQYSMMQPHLQRQHSNPGHAGPFPVVSVHNTTINPTSPTTATMANANRGPTSPSVTAIELIPSVTNPENLPSLPDIPPIQLEDAGSSSLDNLLSRYISGSHLPPQPTSTMNPSPGPSALSPGSSGLSNSHTPVRPPSTSSTGSRGSCGSSGRTAEKTSLSFKSDQVKVKQEPGTEDEICSFSGGVKQEKTEDGRRSACMLSSPESSLTPPLSTNLHLESELDALASLENHVKIEPADMNESCKQSGLSSLVNGKSPIRSLMHRSARIGGDGNNKDDDPNEDWCAVCQNGGDLLCCEKCPKVFHLTCHVPTLLSFPSGDWICTFCRDIGKPEVEYDCDNLQHSKKGKTAQGLSPVDQRKCERLLLYLYCHELSIEFQEPVPASIPNYYKIIKKPMDLSTVKKKLQKKHSQHYQIPDDFVADVRLIFKNCERFNEMMKVVQVYADTQEINLKADSEVAQAGKAVALYFEDKLTEIYSDRTFAPLPEFEQEEDDGEVTEDSDEDFIQPRRKRLKSDERPVHIK [TRIM33] | 48.1 °C | 49.7 °C | 2.02 | 4.15 | -0.201 | 0.105
9 | MAQAGVVGEVTQVLCAAGGALELPELRRRLRMGLSADALERLLRQRGRFVVAVRAGGAAAAPERVVLAASPLRLCRAHQGSKPGCVGLCAQLHLCRFMVYGACKFLRAGKNCRNSHSLTTEHNLSVLRTHGVDHLSYNELCQLLFQNDPWLLPEICQHYNKGDGPHGSCAFQKQCIKLHICQYFLQGECKFGTSCKRSHDFSNSENLEKLEKLGMSSDLVSRLPTIYRNAHDIKNKSSAPSRVPPLFVPQGTSERKDSSGSVSPNTLSQEEGDQICLYHIRKSCSFQDKCHRVHFHLPYRWQFLDRGKWEDLDNMELIEEAYCNPKIERILCSESASTFHSHCLNFNAMTYGATQARRLSTASSVTKPPHFILTTDWIWYWSDEFGSWQEYGRQGTVHPVTTVSSSDVEKAYLAYCTPGSDGQAATLKFQAGKHNYELDFKAFVQKNLVYGTTKKVCRRPKYVSPQDVTTMQTCNTKFPGPKSIPDYWDSSALPDPGFQKITLSSSSEEYQKVWNLFNRTLPFYFVQKIERVQNLALWEVYQWQKGQMQKQNGGKAVDERQLFHGTSAIFVDAICQQNFDWRVCGVHGTSYGKGSYFARDAAYSHHYSKSDTQTHTMFLARVLVGEFVRGNASFVRPPAKEGWSNAFYDSCVNSVSDPSIFVIFEKHQVYPEYVIQYTTSSKPSVTPSILLALGSLFSSRQ [PARP12] | 49.2 °C | 48.1 °C | 1.19 | 1.46 | -0.0418 | -0.201
10 | LSM3 | 55.4 °C | 53.4 °C | -1.12 | -1.32 | 0.115 | 0.0123
11 | MRRLGPFHPRVHWAAPPSLSSGLHRLLFLRGTRIPSSTTLSPPRHDSLSLDGGTVNPPRVREPTGREAFGPSPASSDWLPARWRNGRGGRPRARLCSGWTAAEEARRNPTLGGLLGRQRLLLRMGGGRLGAPMERHGRASATSVSSAGEQAAGDPEGRRQEPLRRRASSASVPAVGASAEGTRRDRLGSYSGPTSVSRQRVESLRKKRPLFPWFGLDIGGTLVKLVYFEPKDITAEEEEEEVESLKSIRKYLTSNVAYGSTGIRDVHLELKDLTLCGRKGNLHFIRFPTHDMPAFIQMGRDKNFSSLHTVFCATGGGAYKFEQDFLTIGDLQLCKLDELDCLIKGILYIDSVGFNGRSQCYYFENPADSEKCQKLPFDLKNPYPLLLVNIGSGVSILAVYSKDNYKRVTGTSLGGGTFFGLCCLLTGCTTFEEALEMASRGDSTKVDKLVRDIYGGDYERFGLPGWAVASSFGNMMSKEKREAVSKEDLARATLITITNNIGSIARMCALNENINQVVFVGNFLRINTIAMRLLAYALDYWSKGQLKALFSEHEGYFGAVGALLELLKIP [PANK2] | 53.1 °C | 55.1 °C | 0.0148 | 0.653 | -0.196 | 0.04
12 | ATP7A | 51.7 °C | 51.1 °C | -0.475 | -0.996 | -0.147 | 0.00927
